To fix the notation:
B1: Ribonuclease, P00648 (parent)
chain: MMKMEGIALKKRLSWISVCLLVLVSAAGMLFSTAAKTETSSHKAHTEAQVINTFDGVADYLQTYHKLPDNYITKSEAQALGWVASKGNLADVAPGKSIGGDIFSNREGKLPGKSGRTWREADINYTSGFRNSDRILYSSDWLIYKTTDHYQTFTKIR

In the series the parent is B1. The settings on record: Bacillus amyloliquefaciens; pH 6.3; 25 °C; Urea; Fluorescence; MES 1.00 M; NaCl 613 mM; reversible: yes; structure 1BNI; whole UniProt chain shown.

Results on 5 variants are retold here after FireProtDB (doi:10.1016/0022-2836(91)90725-l).

As to MMKMEGIALKKRLSWISVCLLVLVSAAGMLFSTAAKTETSSHKAHTEAQVINTFDGVADFLQTFHKLPDNYITKSEAQALGWVASKGNLADVAPGKSIGGDIFSNREGKLPGKSGRTWREADINYTSGFRNSDRILYSSDWLIYKTTDHYQTFTKIR [Y60F Y64F], the “ddG of mutation (higher = less stable)” value came to 1.23 kcal/mol, the denaturant m value was 2.08 kcal/mol/M, the “denaturant midpoint (higher = more stable)” value (“denaturant midpoint” below) was determined as 4.29 M and the unfolding free energy amounted to 8.92 kcal/mol.
As to MMKMEGIALKKRLSWISVCLLVLVSAAGMLFSTAAKTETSSHKAHTEAQVINTFDGVADYLQTFHKLPDNYITKSEAQALGWVASKGNLADVAPGKSIGGDIFSNREGKLPGKSGRTWREADINYTSGFRNSDRILYSSDWLIYKTTDHYQTFTKIR [Y64F], the “ddG of mutation (higher = less stable)” value is 0.58 kcal/mol, the denaturant m value worked out at 2.16 kcal/mol/M, the “denaturant midpoint” value amounted to 4.43 M and the unfolding free energy worked out at 9.57 kcal/mol.
Taken in the same sequence, the figures for MMKMEGIALKKRLSWISVCLLVLVSAAGMLFSTAAKTETSSHKAHTEAQVINTFDGVADALQTAHKLPDNYITKSEAQALGWVASKGNLADVAPGKSIGGDIFSNREGKLPGKSGRTWREADINYTSGFRNSDRILYSSDWLIYKTTDHYQTFTKIR [Y60A Y64A] were 4.76 kcal/mol, 2.22 kcal/mol/M, 2.43 M and 5.39 kcal/mol.
Regarding MMKMEGIALKKRLSWISVCLLVLVSAAGMLFSTAAKTETSSHKAHTEAQVINTFDGVADALQTYHKLPDNYITKSEAQALGWVASKGNLADVAPGKSIGGDIFSNREGKLPGKSGRTWREADINYTSGFRNSDRILYSSDWLIYKTTDHYQTFTKIR [Y60A], the “ddG of mutation (higher = less stable)” value is 3.69 kcal/mol, the denaturant m value is 2.26 kcal/mol/M, the “denaturant midpoint” value is 2.86 M and the unfolding free energy is 6.46 kcal/mol.
On to MMKMEGIALKKRLSWISVCLLVLVSAAGMLFSTAAKTETSSHKAHTEAQVINTFDGVADFLQTYHKLPDNYITKSEAQALGWVASKGNLADVAPGKSIGGDIFSNREGKLPGKSGRTWREADINYTSGFRNSDRILYSSDWLIYKTTDHYQTFTKIR [Y60F], for which the “ddG of mutation (higher = less stable)” value turned out to be 0.63 kcal/mol, the denaturant m value came to 2.17 kcal/mol/M, the “denaturant midpoint” value is 4.38 M and the unfolding free energy turned out to be 9.52 kcal/mol.
